This note sets out measurements from paper PMC8372624.

This assay has as its target fluorescently labeled non-covalent analog of peptide 5 with a non-nucleophilic acetate group on position 133 (UniProt P46937). The experiment in a line: fluorescence polarisation. In general terms: In fluorescence polarisation assays a small probe gives low polarisation when free and higher when bound to something large.
UniProt P46937, sequence (P46937 whole entry, looked up, tested part not stated): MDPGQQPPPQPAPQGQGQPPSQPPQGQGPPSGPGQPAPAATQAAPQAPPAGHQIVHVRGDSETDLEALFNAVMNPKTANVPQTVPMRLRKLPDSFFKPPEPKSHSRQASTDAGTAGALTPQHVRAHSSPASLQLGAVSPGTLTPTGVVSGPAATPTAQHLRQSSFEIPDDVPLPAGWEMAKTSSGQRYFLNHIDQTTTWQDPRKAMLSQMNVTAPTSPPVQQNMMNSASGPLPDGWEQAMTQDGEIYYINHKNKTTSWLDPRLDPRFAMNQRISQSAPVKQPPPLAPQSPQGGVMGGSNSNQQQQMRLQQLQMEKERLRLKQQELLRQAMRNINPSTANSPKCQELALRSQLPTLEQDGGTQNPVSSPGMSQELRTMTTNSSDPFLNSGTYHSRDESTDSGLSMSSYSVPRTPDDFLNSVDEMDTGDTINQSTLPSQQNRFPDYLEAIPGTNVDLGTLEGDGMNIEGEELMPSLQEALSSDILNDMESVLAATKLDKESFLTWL

B1: recombinant full-length 14-3-3σ (1–248) (natural protein)
chain: MERASLIQKAKLAEQAERYEDMAAFMKGAVEKGEELSCEERNLLSVAYKNVVGGQRAAWRVLSSIEQKSNEEGSEEKGPEVREYREKVETELQGVCDTVLGLLDSHLIKEAGDAESRVFYLKMKGDYYRYLAEVATGDDKKRIIDSARSAYQEAMDISKKEMPPTNPIRLGLALNFSVFHYEIANSPEEAISLAKTTFDEAMADLHTLSEDSYKDSTLIMQLLRDNLTLWTADNAGEEGGEAPQEPQS
For B1, the Kd – broadly, the concentration at which binding is half-saturated – was determined as 106 nM.
